Test results from publication PMC13137973 (2026).

Biological target: T1, Biotinylated human TNFR2 protein (human, UniProt P20333-1 23-257, biotin (commercial biotinylation kit))
T1 chain: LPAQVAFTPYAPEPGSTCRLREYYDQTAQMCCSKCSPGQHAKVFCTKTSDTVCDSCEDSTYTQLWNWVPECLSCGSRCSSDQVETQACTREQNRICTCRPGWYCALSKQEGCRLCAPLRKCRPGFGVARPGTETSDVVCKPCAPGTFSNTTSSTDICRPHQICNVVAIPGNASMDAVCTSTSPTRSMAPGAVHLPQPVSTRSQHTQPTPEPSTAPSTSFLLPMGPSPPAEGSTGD
Test: BLI

B1: human immunodeficiency virus 1 (HIV-1) (group M, subtype B, Isolate MN) gp120 Protein (natural protein)
chain: not shown
  koff: 0.00623 s⁻¹
